Values quoted from earlier work as cited in PMC1074345.

Biological target: Angiotensin II AngII (Homo sapiens) (UniProt P01019)
Experiment: radioligand

Sequence of UniProt P01019 (P01019 whole entry, looked up): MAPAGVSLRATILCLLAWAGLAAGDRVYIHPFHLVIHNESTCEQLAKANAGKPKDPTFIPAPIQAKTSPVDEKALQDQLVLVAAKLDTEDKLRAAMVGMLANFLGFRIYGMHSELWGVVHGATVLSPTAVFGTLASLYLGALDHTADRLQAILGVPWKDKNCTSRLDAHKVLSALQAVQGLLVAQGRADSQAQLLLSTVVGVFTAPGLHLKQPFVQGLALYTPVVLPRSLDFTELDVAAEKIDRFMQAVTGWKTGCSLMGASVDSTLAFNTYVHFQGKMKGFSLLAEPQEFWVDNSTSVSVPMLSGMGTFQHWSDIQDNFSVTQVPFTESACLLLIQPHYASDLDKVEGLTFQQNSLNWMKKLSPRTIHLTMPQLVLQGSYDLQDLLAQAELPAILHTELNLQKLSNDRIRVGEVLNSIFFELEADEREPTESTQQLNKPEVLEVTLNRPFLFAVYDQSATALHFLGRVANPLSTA

Substance | Kd
AT1 receptor (from UniProt P30556) | 0.36 nM
AT2 receptor (from UniProt P50052) | 0.17 nM
